Tests used:
thrombin [1] = target: thrombin
thrombin [2] = target: thrombin; remark: listed apart in the source
thrombin [3] = target: thrombin; remark: listed apart in the source

hirudin variant 1 with its endogenous wild-type signal peptide (WT-HV1), cell-free synthesized in K562 cell lysate (from UniProt P01050 1-65) (natural protein)
thrombin time test at 1, 4.9 and 9.8 nmol/l, potency against Mel-HV1 (fold against Mel-HV1) (thrombin [1]): > 10
thrombin time test at equimolar 3.1 nmol/l, effect against rHV1 (fold against rHV1) (thrombin [2]): 100
thrombin time test, clotting time with 10 µl SN2 fraction (thrombin [3]): 242 s

hirudin variant 1 with its endogenous wild-type signal peptide (WT-HV1), cell-free synthesized in CHO cell lysate (from UniProt P01050 1-65) (natural protein)
thrombin time test at equimolar 3.1 nmol/l, elongation of TT against rHV1 (fold against rHV1) (thrombin [2]): 9
thrombin time test, clotting time with 10 µl SN2 fraction (thrombin [3]): 94 s

hirudin variant 1 with its endogenous wild-type signal peptide (WT-HV1), cell-free synthesized in Sf21 cell lysate (from UniProt P01050 1-65) (natural protein)
thrombin time test at equimolar 3.1 nmol/l, elongation of TT against rHV1 (fold against rHV1) (thrombin [2]): > 2
thrombin time test, clotting time with 10 µl SN2 fraction (thrombin [3]): 50 s
